According to patent US6677433B2 (The Regents of the University of California, priority 2001, dated 2004):

How the values were obtained:
[1] = test system: wheat protease preparation; test: Proteolysis by a plant protease preparation (SDS-PAGE, laser densitometer); format: biochemical
Method: The endosperm (10-15 g fresh weight) isolated from 5-day germinated wheat seeds by excising the roots and shoots was extracted for 30 minutes at 4° C. with 5 volumes of 200 mM sodium acetate, pH 4.6, containing 10 mM β-mercaptoenthanol. The homogenate was centrifuged for 20 minutes at 48,000 g, 4° C. The pellet was discarded and the supernatant fluid was fractionated with 30-70% ammonium sulfate. This fraction, which represented the protease preparation, was resuspended in a minimum volume of 20 mM sodium acetate, pH 4.6, containing 10 mM β-mercaptoenthanol, and dialyzed against this buffer overnight at 4° C.
Unless indicated, the reduction of the trypsin inhibitors (0.4 mg/ml) was carried out in 0.1 ml of 20 mM sodium phosphate buffer, pH 7.9 containing 10 mM EDTA at 30° C. for 2 hours. […] Proteolytic products were analyzed by electrophoresis with 12% or 16% SDS polyacrylamide slab gels (Laemmli, 1970). […]
To test whether the reduced forms of KTI and BBTI show decreased stability to proteases other than trypsin, both the reduced and oxidized forms of KTI and BBTI were incubated with a wheat protease preparation or with subtilisin and the proteolytic products were analyzed by SDS-PAGE. The extent of proteolysis was determined by measuring the abundance of intact protein on SDS gels by laser densitometer. […]

[2] = molecular target: T1, NADP-Malate Dehydrogenase (Zea mays, UniProt P15719); test: Activation of chloroplast NADP-malate dehydrogenase by thioredoxin-reduced proteins; format: biochemical, corn; settings: 20 μg protein; DTT→Thioredoxin→Indicated Protein→Target Enzyme
T1 construct: NADP-malate dehydrogenase (NADP-MDH) and fructose-1,6-bisphosphatase (FBPase) were purified from leaves of corn; from tissue; host or cells: corn leaves
T1 sequence (P15719 whole entry, looked up): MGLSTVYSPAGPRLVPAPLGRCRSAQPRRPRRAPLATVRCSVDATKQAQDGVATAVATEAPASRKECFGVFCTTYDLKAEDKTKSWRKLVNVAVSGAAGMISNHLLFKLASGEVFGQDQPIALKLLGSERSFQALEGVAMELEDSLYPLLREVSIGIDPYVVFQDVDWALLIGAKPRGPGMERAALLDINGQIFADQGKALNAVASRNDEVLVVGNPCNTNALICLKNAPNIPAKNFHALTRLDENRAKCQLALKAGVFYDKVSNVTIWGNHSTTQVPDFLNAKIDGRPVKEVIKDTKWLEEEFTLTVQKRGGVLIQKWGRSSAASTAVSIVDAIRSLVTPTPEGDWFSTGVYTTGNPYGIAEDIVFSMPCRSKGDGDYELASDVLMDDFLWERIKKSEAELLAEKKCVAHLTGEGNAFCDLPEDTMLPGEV
Method: The NADP-MDH, FBPase, NTR and Thioredoxin h assay methods were according to Florencio, F. J. et al. (1988), Arch. Biochem. Biophys. 266:496-507 with slight modifications as indicated. For enzyme activation assays, the preincubation time was 20 min unless specified otherwise.
The capability to replace a specific thioredoxin in the activation of chloroplast enzymes is one test for the ability of thiol groups of a given protein to undergo reversible redox change. […] A case in point is purothionin which, when reduced by thioredoxin h activates chloroplast FBPase (Wada, K. et al. (1981), FEBS Lett. 124:237-240, and Johnson, T. C. et al. (1987), Plant Physiol. 85:446-451). The FBPase, whose physiological activator is thioredoxin f, is unaffected by thioredoxin h. In this Example, the ability of cystine-rich proteins to activate FBPase as well as NADP-MDH was tested as set forth above. […]
The Wada et al., 1981 protocol was used for assaying NADP-malate dehydrogenase and fructose 1,6 bisphosphatase in the presence of thioredoxin and 2S protein. […] The 2S protein was monitored during purification by mBBr/SDS-polyacrylamide gel electrophoresis following its reduction by dithiothreitol and E. coli thioredoxin (Crawford et al., 1989; Kobrehel et al., 1991).

B1: Soybean Kunitz: Kunitz soybean trypsin inhibitor (protein, UniProt P01070 25-205, looked up)
Trypsin inhibitor A: DFVLDNEGNPLENGGTYYILSDITAFGGIRAAPTGNERCPLTVVQSRNELDKGIGTIISSPYRIRFIAEGHPLSLKFDSFAVIMLCVGIPTEWSVVEDLPEGPAVKIGENKDAMDGWFRLERVSDDEFNNYKLVFCPQQAEDDKCGDIGISIDHDDGTRRLVVSKNKPLVVQFQKLDKESL
degraded by wheat protease preparation [1]: about 80%
ACTIVITY, NADP-MDH [2]: 2 nkat/mg
